The source of these data is patent publication US20240076412A1 (NATIONAL INSTITUTE OF BIOLOGICAL SCIENCES BEIJING, published 2024).

In assay [1] the target is hCD47 protein (SPR analyte of Example 2) (human, UniProt Q08722 19-139, limits assumed). In words: SPR, antibody captured by anti-human Fc antibodies on CM5 chip, hGPC3 injected first, then hCD47.
For another assay, the target named is T1, hGPC3-ΔHS (human, UniProt P51654 25-559, limits assumed).
T1 construct: also called hGPC3-ΔHS protein
In words: SPR (Biacore T200), IgG1 captured on protein A/G CM5 chip, antigen printed as human GPC3 (hGPC3-ΔHS by paragraph 180) as analyte.

For another assay, the target named is T2, mFcγRI.
T2 construct: Named singly only on the sheet; the text speaks of mFcγRs as a group; also called mouse Fcγ receptor I; one of the mFcγRs
T2 chain: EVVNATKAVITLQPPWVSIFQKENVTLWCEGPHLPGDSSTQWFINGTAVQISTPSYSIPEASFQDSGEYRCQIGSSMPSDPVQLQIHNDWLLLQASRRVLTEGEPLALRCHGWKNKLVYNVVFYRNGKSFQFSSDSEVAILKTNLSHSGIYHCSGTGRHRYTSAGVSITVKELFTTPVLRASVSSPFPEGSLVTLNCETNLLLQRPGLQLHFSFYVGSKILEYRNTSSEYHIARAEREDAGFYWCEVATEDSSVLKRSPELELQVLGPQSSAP
As to the kind of experiment: SPR (Biacore T200), antibody captured on the chip, serially diluted mFcγRI as analyte; concentrations not given. A general note: SPR reads the build-up and loss of mass on a sensor chip optically.

hCD47 protein (SPR analyte of Example 2), sequence (Q08722 19-139 limits assumed): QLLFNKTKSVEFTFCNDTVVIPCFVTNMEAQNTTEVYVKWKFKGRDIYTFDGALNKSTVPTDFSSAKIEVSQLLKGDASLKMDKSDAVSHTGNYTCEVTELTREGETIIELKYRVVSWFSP
Protocol for hGPC3-ΔHS: All SPR analyses were performed on a Biacore T200 instrument (Biacore, GE Healthcare). […] The association rates (Kₒₙ), dissociation rates (Koff), and affinity constants (KD) were calculated using BiacoreT200 evaluation software.

B1: GC33 (Codrituzumab), human IgG1 (antibody, V domains shown)
VH: QVQLVQSGAEVKKPGASVKVSCKASGYTFTDYEMHWVRQAPGQGLEWMGALDPKTGDTAYSQKFKGRVTLTADESTSTAYMELSSLRSEDTAVYYCTRFYSYTYWGQGTLVTVSS
VL: DVVMTQSPLSLPVTPGEPASISCRSSQSLVHSNANTYLHWYLQKPGQSPQLLIYKVSNRFSGVPDRFSGSGSGTDFTLKISRVEAEDVGVYYCSQNTHVPPTFGQGTKLEIK
notes: also called anti-GPC3 mAb
In the case of B1, in assay [1], the binding result is listed as “no binding”. In the assay with hGPC3-ΔHS, the affinity, expressed as Kd, was 1.29 nM; the koff was 0.000275 s⁻¹; the association rate constant (kon) was found to be 213000 M⁻¹ s⁻¹.

B2: GPC3/CD47-DANG (bispecific antibody)
heavy 1: QVQLVQSGAEVKKPGASVKVSCKASGYTFTDYEMHWVRQAPGQGLEWMGALDPKTGDTAYSQKFKGRVTLTADESTSTAYMELSSLRSEDTAVYYCTRFYSYTYWGQGTLVTVSSASTKGPSVFPLAPSSKSTSGGTAALGCLVKDYFPEPVTVSWNSGALTSGVHTFPAVLQSSGLYSLSSVVTVPSSSLGTQTYICNVNHKPSNTKVDKKAEPKSCDKTHTCPPCPAPELLGGPSVFLFPPKPKDTLMISRTPEVTCVVVAVSHEDPEVKFNWYVDGVEVHNAKTKPREEQYGSTYRVVSVLTVLHQDWLNGKEYKCKVSNKALPAPIEKTISKAKGQPREPQVYTLPPCRDELTKNQVSLWCLVKGFYPSDIAVEWESNGQPENNYKTTPPVLDSDGSFFLYSKLTVDKSRWQQGNVFSCSVMHEALHNHYTQKSLSLSPGK
light 1: DVVMTQSPLSLPVTPGEPASISCRSSQSLVHSNANTYLHWYLQKPGQSPQLLIYKVSNRFSGVPDRFSGSGSGTDFTLKISRVEAEDVGVYYCSQNTHVPPTFGQGTKLEIKRTVAAPSVFIFPPSDEQLKSGTASVVCLLNNFYPREAKVQWKVDNALQSGNSQESVTEQDSKDSTYSLSSTLTLSKADYEKHKVYACEVTHQGLSSPVTKSFNRGEC
heavy 2: QVQLQESGPGLVKPSETLSLTCTVSGDSINYHYWSWIRQPPGKGLEWIGYIYYSGSTTYNPSLKSRVTMSVDPSKNHFSLKLTSVTAADTALYFCARQRGAYDYWGQGTLVTVSSASVAAPSVFIFPPSDEQLKSGTASVVCLLNNFYPREAKVQWKVDNALQSGNSQESVTEQDSKDSTYSLSSTLTLSKADYEKHKVYACEVTHQGLSSPVTKSFNRGECDKTHTCPPCPAPELLGGPSVFLFPPKPKDTLMISRTPEVTCVVVAVSHEDPEVKFNWYVDGVEVHNAKTKPREEQYGSTYRVVSVLTVLHQDWLNGKEYKCKVSNKALPAPIEKTISKAKGQPREPQVCTLPPSRDELTKNQVSLSCAVKGFYPSDIAVEWESNGQPENNYKTTPPVLDSDGSFFLVSKLTVDKSRWQQGNVFSCSVMHEALHNHYTQKSLSLSPGK
light 2: DIQLTQSPSSVSASVGDRVTIACRASQDIGSRLVWYQQRPGKAPKLLIYAASSLQSGVPSRFSGSGSGTDFTLTISSLQPEDFATYYCQQSYSTPYSFGQGTKLEIKSSASTKGPSVFPLAPSSKSTSGGTAALGCLVKDYFPEPVTVSWNSGALTSGVHTFPAVLQSSGLYSLSSVVTVPSSSLGTQTYICNVNHKPSNTKVDKKAEPKSC
notes: also called GPC3/CD47 biAb Fc variant; GPC3/CD47-DANG variant
For the molecule B2, the binding result with mFcγRI is on record as “no binding”.

By Kd is commonly meant a measure of binding affinity in units of concentration. By koff is commonly meant a measure of how fast the partners let go of each other. Read a high koff as a short-lived complex. One may read the kon as a measure of how fast the partners come together.
